Values quoted from earlier work as cited in PMC10954796, “Post-translational modifications of beta-amyloid alter its transport in the blood-brain barrier in vitro model” (Frontiers in Molecular Neuroscience, 2024).
“And” between values parts separate entries of the source, which are not always exact repeats. Equal entries are not always repeated.

Tests used:
[1] = target: Aβ42 oligomers 1-42 (Homo sapiens) (UniProt P05067); test: surface plasmon resonance
[2] = target: Aβ40 1-40 (Homo sapiens) (UniProt P05067)
Chain of Aβ40 1-40 (Homo sapiens) (P05067 1-40): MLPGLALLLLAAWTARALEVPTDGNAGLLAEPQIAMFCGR

Chain of Aβ42 oligomers 1-42 (Homo sapiens) (P05067 1-42): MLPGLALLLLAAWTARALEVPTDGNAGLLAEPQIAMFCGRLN

| Kd [1] [nM] | Kd [2] | Substance |
| --- | --- | --- |
| 17 |  | sRAGE (from UniProt Q15109) |
|  | 75 nM and 57 nM | RAGE (from UniProt Q15109) |
